Measurements taken from paper doi:10.1101/2022.06.21.496973.

How the values were obtained:
[1] = molecular target: taxol-stabilized microtubules (co-sedimentation assays) (porcine) (UniProt P02550); assay: co-sedimentation
[2] = molecular target: taxol-stabilized rhodamine-labeled, biotinylated microtubules stored overnight at 23°C or 37°C (damaged MTs) (porcine) (UniProt P02550); assay: TIRF microscopy of eGFP fluorescence on immobilised microtubules
[3] = molecular target: 6XHis-1024-1090 (Abl2 site II fragment) (murine) (UniProt Q4JIM5); assay: BLI
[4] = molecular target: 6XHis-557-C (Abl2 C-terminal half) (murine) (UniProt Q4JIM5); assay: BLI
[5] = molecular target: 6XHis-688-924 (Abl2 site I fragment) (murine) (UniProt Q4JIM5); assay: BLI
[6] = molecular target: 6XHis-Abl2 (murine Abl2, residues 74-1182) (murine) (UniProt Q4JIM5); assay: BLI

Substance | Kd [1] | mean fluorescence intensity per µm on MTs stored at 23°C [2] | mean fluorescence intensity per µm on MTs stored at 37°C [2] | mean intensity on borders of damage, MTs stored at 23°C [2] | mean intensity on borders of damage, MTs stored at 37°C [2] | mean intensity on lattices, MTs stored at 23°C [2] | mean intensity on lattices, MTs stored at 37°C [2] | Kd [3] | Kd [4] | Kd [5] | Kd [6]
6XHis-Abl2Δ688-790 (naturally occurring splice isoform) (from UniProt Q4JIM5 74-1182) (natural protein) | 0.4 µM |  |  |  |  |  |  |  |  |  | 
Abl2-eGFP (from UniProt Q4JIM5 74-1182) (natural protein) | 0.32 µM | 0.91 a.u.·µm^-1 | 0.71 a.u.·µm^-1 | 0.39 a.u. | 0.38 a.u. | 0.3 a.u. | 0.28 a.u. |  |  |  | 
porcine brain tubulin dimers (from UniProt P02550 1-451; Q767L7 1-444) (complex) |  |  |  |  |  |  |  | 0.252 µM | 0.017 µM | 0.118 µM | 0.042 µM
